In test [1] the target is recombinant mature human PAI-1 (24-402) stabilized in active conformation (N150H, K154T, Q319L, M354I) (human) (UniProt P05121). Nature of the test: crystal structure, light chain, average of 4 complexes.
Test [2] deals with cynomolgus PAI-1 (cynomolgus (Macaca fascicularis)). Nature of the test: crystal structure, light chain, average of 2 complexes.
Test [3] has the same target. As to the kind of experiment: crystal structure, heavy chain, average of 2 complexes.
The target of test [4] is recombinant mature human PAI-1 (24-402) stabilized in active conformation (N150H, K154T, Q319L, M354I) (human) (UniProt P05121). Nature of the test: crystal structure, heavy chain, average of 4 complexes.

B1: Fab A44V11 (Fab, V domains shown)
VH: QMTLKESGPTLVKPTQTLSLTCSVSGDSMTNGYWNWIRQFPGKALEYMGYITYSGSTYYNPSLKGRITITRDTSKNQYYLTLSSVTTVDTATYYCARWHYGSPYYFDYWGQGTTLTVSS
VL: DIKMTQSPSSLSASVGDRVTITCKASQDINSYLSWLQQKPGKSPKTLIYRAQRSVEGVPSRFSGSGSGQDYSLTISSLQPEDLGIYYCLQYDEFPPTFGGGTKLEIK
With B1, the surface area of the interaction in test [1] amounted to 372 Å^2; in test [2], 360 Å^2; in test [3], 703 Å^2; in test [4], 674 Å^2.

Source of the values: patent EP3620472A1.
